In the RNAGym collection of RNA variant scans (doi:10.7554/elife.90254):

B1: LINE1-full (parent)
chain: UACGUAGGUGGUUUUCCCCUGAUAGUGCUAAGGGGGCCUGGAAGUUUGGACUGGGCAGAGCUCAACACAGCGUGGCAAAGUGGCUGUGGCUAGACUGCCUCUCUGGAUUCCUCGUCACUCAGCAGGGCAUCUCUGAGAGAAAUGCC

Variants of: B1
Assay: self-cleavage, relative activity (ratio to wild type); higher = more cleavage; in vitro, sequencing; the parent is a self-cleaving ribozyme

Q: With UACGUAGGUGGUUUUCCCCUGAUAGUGCUAAGGGGGCCUGGAAGCUUGGACUGGGCAGAGCUCAACACAGCGUGGCAAAGUGGCUGUGGCUAGACUACCUCUCUGGAUUCCUCGUCACUCAGCAGGGCAUCUCUGAGAGAAAUGCC [U45C G97A] as the variant, how does the self-cleavage read?
A: 0.07

Q: For UACGUAGGUGGUUUUCCCCUGAUAGUGCUAAGGGGGCCUGGAAGUUUGGACUGGGCAGCGCUCAACACAGCGUGGCAAAGUGGCUGUGGCUAGACUGCCUCUCUGGAUUCCUCGUCGCUCAGCAGGGCAUCUCUGAGAGAAAUGCC [A59C A117G], which self-cleavage is on record?
A: 2.7

Q: With UACGUAGGUGGUUUUCCCCUGAUAGUGCUAAGGGGGCCUGGAAGUUUGGACUGGGCAGAGCUCAACGCAGCGUGGCAAAGUGGCUGUGGCUAGACUGCCUCUCUGGAUUCCUCGUCACUCAGCAGGGCAUCUCUGCGAGAAAUGCC [A67G A136C] as the variant, how does the self-cleavage read?
A: 0.38

Q: Which self-cleavage does the source give for UACGUAGGUGGUUUUCCCCUGAUAGUGCUAAGGGGGCCUGGAAGUUUGGACUGGGCAGAACUCAACACAGCGUGGCAAAGUGGCUGUGGCUAGACUGCCUCUCUGGAUUCCUCGUCACUCAGCGGGGCAUCUCUGAGAGAAAUGCC [G60A A124G] here?
A: 0.05

Q: For UACGUAGGUGGUUUUCCCCUGAUAGUGCUAAGGGGGCCUGGAAGUUUGGACUGGGCAGAGCUCAAUACAGCGUGGCAAAGUGGCUGUGGCUAGACUGCCUCUCUGGAUUCCUCGUCACUCAGCAGGGCAUCUCCGAGAGAAAUGCC [C66U U134C], which self-cleavage is on record?
A: 0.06

Q: For UACGUAGGUGGUUUUCCCCGGAUAGUGCUAAGGGGGCCUGGAAGUUUGGACUGGGCAGAGCUCAACACUGCGUGGCAAAGUGGCUGUGGCUAGACUGCCUCUCUGGAUUCCUCGUCACUCAGCAGGGCAUCUCUGAGAGAAAUGCC [U20G A69U], which self-cleavage is on record?
A: 0

Q: Which self-cleavage does the source give for UACGUAGGUGGAUUCCCCCUGAUAGUGCUAAGGGGGCCUGGAAGUUUGGACUGGGCAGAGCUCAACACAGCGUGGCAAAGUGGCUGUGGCUAGACUGCCUCUCUGGAUUCCUCGUCACUCAGCAGGGCAUCUCUGAGAGAAAUGCC [U12A U15C] here?
A: 0.92

Q: With UACGUAGGUGGUUUUCCCCUGAUAGUGCUAAGGGGGCCUGGAAGUUUGGACUGGGCAGAGCUCAACACAGCGUGGCAAAGUGGCUGUGGCUAGACUGCCUCUCUGGAUUCCUCGGCACUCAGCAGGGCAUCUCUGAGGGAAAUGCC [U115G A138G] as the variant, how does the self-cleavage read?
A: 2.15

Q: Which self-cleavage does the source give for UACGUAGGUGGUUUUCCCCUGAUAGUGCUUAGGGGGCCUGGAAGUCUGGACUGGGCAGAGCUCAACACAGCGUGGCAAAGUGGCUGUGGCUAGACUGCCUCUCUGGAUUCCUCGUCACUCAGCAGGGCAUCUCUGAGAGAAAUGCC [A30U U46C] here?
A: 1.12

Q: For UACGUAGGUGGUUUUCCCCUGAUAGUGCUAAGGGGGCCUGGAAGUUUAGACUGGGCAGAGCUCAACACAGCGUGGCAAAGUGGCUGUGGCUAGACUGCCUCUCUGGAUUCCUCGUCACUCAGCAGGGCAACUCUGAGAGAAAUGCC [G48A U130A], which self-cleavage is on record?
A: 0.91

Q: Which self-cleavage does the source give for UACGUAGGUGGUUUACCCCUGAUAGUGCUAAGGGGGCCUGGAAGUUUGGACUGGGCAGAGCUCAACACAGCGUGGCAAAGUGGCUGUGGCUAGACUGCCUCUCUGGAUUCCUCGCCACUCAGCAGGGCAUCUCUGAGAGAAAUGCC [U15A U115C] here?
A: 1.09

Q: Which self-cleavage does the source give for UACGUAGGUGGUUUUCCCCUGAUAGUGCUAAGGGGGCCUGGAAGUUUGGACUGGGCAGAGCUCAACACAGCGUGGCAAAGUGGCUGUGGCUAGACUGCCUCUCUGGAUUCCCCGUCACUCAGCAGGGCAUCUCUGAGAGAAAUACC [U112C G144A] here?
A: 1.58

Q: Which self-cleavage does the source give for UACGUAGGUGGUUUUCCCCUGAUAGUGCUAAGGGGGCCUGGAAGUUUGGACUGGGCAGAGCUCAACACAGCGUGGCAUAGUGGCAGUGGCUAGACUGCCUCUCUGGAUUCCUCGUCACUCAGCAGGGCAUCUCUGAGAGAAAUGCC [A78U U85A] here?
A: 0.11

Q: With UACGUAGGUGGUUUUCCCCUGAUAGUGCUAAGGGGGCCUGGAAGUUUGGACUGGGCAGAGCUCAACACAGCGAGGCAACGUGGCUGUGGCUAGACUGCCUCUCUGGAUUCCUCGUCACUCAGCAGGGCAUCUCUGAGAGAAAUGCC [U73A A79C] as the variant, how does the self-cleavage read?
A: 2.16

Q: For UACGUAGGUGGUUUUCCCCUGAUAGUGCUAAGGGGGCCUGGAAGUUUGGACUGGGCAGAGCUCAACACAGCGCGGCAAAGUGGCUGUGGCUAGACUGCCUCUCUGGAUUCCUCGUCACUCAGCAGGGCAUCUCUGAGAGAAAUGUC [U73C C145U], which self-cleavage is on record?
A: 1.53

Q: With UACGUAGGUAGUUUUCCCCUGAUAGUGCUAAGGGGGCCUGGAAGUUUGGACUGGGCAGAGCUCAACACAGCGUGGCAAAGUGGCUGUGGCUAGACUGCCUCUCUGGAUUCCUCGUCACUCAGCUGGGCAUCUCUGAGAGAAAUGCC [G10A A124U] as the variant, how does the self-cleavage read?
A: 2.3

Q: With UACGUAGGAGGUUUUCCCCUGAUAGUGCUAAGGGGGCCUGGAAGUUUGGACUGGGCAGAGCACAACACAGCGUGGCAAAGUGGCUGUGGCUAGACUGCCUCUCUGGAUUCCUCGUCACUCAGCAGGGCAUCUCUGAGAGAAAUGCC [U9A U62A] as the variant, how does the self-cleavage read?
A: 0.12

Q: For UACGUAGGUGGUUUUCCCCUGAUAGUGCUAAGGGGGCCUGGAAGUUUGGACUGGGCAGGGCUCAACACAGCGUGGCAAAGUGGCUGUGGCUAGACGGCCUCUCUGGAUUCCUCGUCACUCAGCAGGGCAUCUCUGAGAGAAAUGCC [A59G U96G], which self-cleavage is on record?
A: 0

Q: With UACGUAGGUGGUUUUCCCCAGAUAGUGCUAAGGGGGCCUGGAAGUUUGGACUGGGCAGAGCUCAACACAGCGUGGCAAAGUGGCUGUGGCUAGACUGCCUCUCUGGAUUCCUCGUCACUCAGCAGGGCAUCUCUGAGAGGAAUGCC [U20A A140G] as the variant, how does the self-cleavage read?
A: 1.16

Q: For UACGUAGGUGGUUUUCCCCUGAUAGUGCUAAGGGGGCCUGGAAGUUUGGACUGGGCAGAGCUCAACACAGCGUAGCAAAGUGGCUGUGGCUAGACUGCCUCUCUGGAUUCCUAGUCACUCAGCAGGGCAUCUCUGAGAGAAAUGCC [G74A C113A], which self-cleavage is on record?
A: 0.85
